Common to all, as to conditions: both partners purified
In assay [1] the target is T1, Streptococcus pyogenes Cas9 (a.a. 1-1368) (S. pyogenes, UniProt Q99ZW2 1-1368).
T1 construct: Cas9 RNA-guided endonuclease of Streptococcus pyogenes, residues 1-1368, synthetic gene in pET28b; the two states are told apart by the assay; also called SpyCas9; apo-SpyCas9; source: E. coli BL21(DE3), purified (HisTrap HP, HiTrap SP, Superdex200)
The assay is described as follows: ITC; apo-SpyCas9 (no sgRNA): 50 uM SpyCas9 in the cell titrated with 500 uM AcrIIA4; 25 °C; 20 mM sodium phosphate, pH 7.4, 100 mM NaCl, 5 mM BME, 0.01% NaN3; one-site binding model.

Assay [2] deals with T1, Streptococcus pyogenes Cas9 (a.a. …). Description: ITC; sgRNA-bound SpyCas9 titrated with AcrIIA4; 25 °C; one-site binding model. (In general: ITC needs no label: the signal is the heat of the interaction.)
Assay [3] has the same target. The assay is described as follows: ITC; apo-SpyCas9 (no sgRNA): 50 uM SpyCas9 in the cell titrated with 500 uM AcrIIA4; 25 °C; 20 mM sodium phosphate, pH 7.4, 100 mM NaCl, 5 mM BME, 0.01% NaN3; one-site binding model. The source holds these as a separate data set.

T1 sequence (Q99ZW2 whole entry, the tested form may be a part): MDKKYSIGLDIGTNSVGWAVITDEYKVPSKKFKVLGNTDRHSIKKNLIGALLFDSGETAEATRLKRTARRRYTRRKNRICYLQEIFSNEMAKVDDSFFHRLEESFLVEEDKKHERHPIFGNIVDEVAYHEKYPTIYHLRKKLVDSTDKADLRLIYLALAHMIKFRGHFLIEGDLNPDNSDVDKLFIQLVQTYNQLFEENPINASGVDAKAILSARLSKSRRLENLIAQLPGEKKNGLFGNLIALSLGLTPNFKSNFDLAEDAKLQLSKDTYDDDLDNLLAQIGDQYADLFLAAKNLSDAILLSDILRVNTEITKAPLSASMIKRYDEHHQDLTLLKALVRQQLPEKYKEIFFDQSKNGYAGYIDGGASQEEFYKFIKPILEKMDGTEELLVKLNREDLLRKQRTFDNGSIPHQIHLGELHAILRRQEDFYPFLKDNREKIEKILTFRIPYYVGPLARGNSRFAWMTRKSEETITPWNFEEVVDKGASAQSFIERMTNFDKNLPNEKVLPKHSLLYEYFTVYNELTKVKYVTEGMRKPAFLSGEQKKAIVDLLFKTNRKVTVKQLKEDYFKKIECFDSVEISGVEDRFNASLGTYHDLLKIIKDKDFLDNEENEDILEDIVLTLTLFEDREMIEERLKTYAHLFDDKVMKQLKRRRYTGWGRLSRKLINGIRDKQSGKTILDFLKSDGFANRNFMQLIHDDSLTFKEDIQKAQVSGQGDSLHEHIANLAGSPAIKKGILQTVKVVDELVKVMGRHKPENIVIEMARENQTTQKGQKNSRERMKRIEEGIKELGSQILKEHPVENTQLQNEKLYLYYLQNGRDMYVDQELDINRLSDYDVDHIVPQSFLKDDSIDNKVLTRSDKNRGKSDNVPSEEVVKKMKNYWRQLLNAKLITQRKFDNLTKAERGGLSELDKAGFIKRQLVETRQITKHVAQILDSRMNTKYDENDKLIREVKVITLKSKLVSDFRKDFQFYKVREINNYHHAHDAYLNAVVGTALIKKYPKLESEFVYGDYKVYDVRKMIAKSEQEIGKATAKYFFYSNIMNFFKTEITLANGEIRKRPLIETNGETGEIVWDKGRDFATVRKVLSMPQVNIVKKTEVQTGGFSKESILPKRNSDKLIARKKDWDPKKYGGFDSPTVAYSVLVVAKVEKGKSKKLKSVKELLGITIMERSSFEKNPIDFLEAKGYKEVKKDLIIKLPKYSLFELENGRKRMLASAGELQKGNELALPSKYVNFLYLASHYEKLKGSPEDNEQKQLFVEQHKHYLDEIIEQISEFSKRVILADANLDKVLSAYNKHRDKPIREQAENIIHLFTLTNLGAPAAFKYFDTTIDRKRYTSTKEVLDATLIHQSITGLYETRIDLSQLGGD

B1: Listeria monocytogenes anti-CRISPR protein AcrIIA4 (a.a. 1-87) (natural protein, Listeria monocytogenes (prophage), UniProt A0A247D711 1-87, looked up)
chain: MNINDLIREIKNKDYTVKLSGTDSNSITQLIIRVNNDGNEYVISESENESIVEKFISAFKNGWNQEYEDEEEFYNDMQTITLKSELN
notes: AcrIIA4, anti-CRISPR protein encoded by Listeria monocytogenes prophages, residues 1-87, synthetic gene; Cloned into a modified pBT7-N-His vector; also called 15N-AcrIIA4; 13C,15N-AcrIIA4; source: E. coli BL21star(DE3), purified (HisTrap, TEV cleavage, Superdex 75, MonoQ); not shown: His6, N-terminal, cleaved
As to B1, in assay [1], the stoichiometry N (commonly a count of units in the complex or per binding partner) came to 1. In assay [2], binding was put at a Kd of 0.6 ± 0.1 nM and the dH was -10.3 ± 0.1 kcal/mol. In assay [3], the Kd (in general, the constant that tells how readily two partners part at equilibrium) is 4800 ± 150 nM and the dH was -11.5 ± 0.7 kcal/mol.

The values above are taken from PMC5832863, “Solution structure and dynamics of anti-CRISPR AcrIIA4, the Cas9 inhibitor” (Scientific Reports, 2018).
